This note sets out measurements from paper PMC10035768.

This assay addresses human Tau441 (2N4R), recombinant, phosphorylated in vitro by PKA (human) (UniProt P10636). As to the kind of experiment: cross-linking + other: mass photometry; BS3 amine-amine crosslinking of purified 4R tau (tau441, with or without PKA phosphorylation) with purified recombinant 14-3-3 β, 20-fold molar excess, 1× PBS pH 8.0, 30 min room temperature; mass photometry in DPBS at room temperature.

Chain of human Tau441 (2N4R), recombinant, phosphorylated in vitro by PKA (human) (P10636 other isoform, or with tags, fused parts or gaps): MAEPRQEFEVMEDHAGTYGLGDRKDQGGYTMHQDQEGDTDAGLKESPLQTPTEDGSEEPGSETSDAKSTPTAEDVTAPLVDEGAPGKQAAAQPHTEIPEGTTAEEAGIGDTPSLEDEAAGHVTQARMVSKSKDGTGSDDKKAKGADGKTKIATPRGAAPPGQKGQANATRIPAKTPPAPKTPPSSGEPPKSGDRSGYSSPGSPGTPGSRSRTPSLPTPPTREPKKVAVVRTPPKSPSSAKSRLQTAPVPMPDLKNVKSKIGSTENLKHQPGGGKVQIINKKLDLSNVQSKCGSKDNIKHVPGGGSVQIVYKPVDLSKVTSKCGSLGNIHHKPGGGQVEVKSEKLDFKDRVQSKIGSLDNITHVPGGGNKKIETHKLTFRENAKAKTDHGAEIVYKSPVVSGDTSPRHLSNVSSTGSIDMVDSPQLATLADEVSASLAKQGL

For “purified recombinant 14-3-3 β (from UniProt P31946 1-246) (natural protein)”, the stoichiometry N (14-3-3-β per tau) stood at 2.
